Values belong to the molecule of their own block, whether it stands above or below them.
Assays:
GFP:RGA = experiment: Immunoprecipitation of GFP:RGA from pRGA::GFP:RGA seedlings sprayed with GA3; assay type: in vivo, Arabidopsis; settings: seedlings sprayed with GA3 (10 μM), harvested at different time points
Experimental: FIGS. 7A-D. RGA and GAI are SUMOylated in vivo. a, Immunoprecipitation of GFP proteins from 35S::GFP or 35S::GFP:NPR1 (NON EXPRESSER OF PR GENES) young seedlings sprayed with 1 mM Salicylic acid (+SA) or control (−SA). Numbers indicate molecular mass (kDa), arrowhead, the GFP:NPR1 or GFP proteins. Ponceau staining of the Rubisco large subunit serves as a loading control. b, in vitro deSUMOylation of plant-derived GFP:RGA by recombinant SUMO protease subunits of SENP1 and SENP2. c, immunoprecipitation of equal amount of total proteins derived from pRGA::GFP:RGA seedlings or a transgenic line (Col-0) expressing GAI:GFP (35S::GAI:GFP). 9 days old seedlings were grown in petri dishes in the absence (−) or presence (+) of PAC (0.1 μM). […]
Total proteins were extracted by homogenizing fresh Arabidopsis seedlings in the presence of ice cold extraction buffer—150 mM NaCl, 1% Igepal CA-630, 0.5% sodium deoxycholate, 0.1% SDS, 1 mM EDTA, 50 mM Tris HCl, pH 8.0 and freshly added protease inhibitor cocktail (Roche) and 10 mM N-ethylmaleimide (NEM). The homogenates were clarified by spinning 10 min at 4° C. at 13000×g and the supernatant quantified with the Bradford assay. […] Total proteins were quantified with the Bradford reagent and an equal amount of proteins was precipitated with five volumes of cold acetone. […]

His:proAtSUMO1 [1] = target: T1, His:proAtSUMO1 (Arabidopsis, UniProt P55852 1-100); experiment: peptide array probed with SUMO1 (FIG. 10a)
T1 construct: Probe of the far-western assay on spotted SIM peptides (10 ug/ml); also called recombinant His:proAtSUMO1; not shown: His tag

[2] = target: T2, SUMOylated GFP:RGA (plant-derived) (Arabidopsis, UniProt P55852 1-93, SUMO1 conjugated; lysine 65 of RGA is the critical amino acid for SUMO attachment); experiment: GST pull down of plant-derived GFP:RGA with recombinant GST:GID1a, with or without 10 µM GA3
T2 construct: the preparation is a mixture of SUMOylated and non-SUMOylated forms; also called SUMOylated RGA; SUMOylated DELLA; not shown: GFP fused N-terminally to RGA in the pRGA::GFP:RGA line
Experimental: GA3 was added at a final concentration of 10 μM. Proteins were pulled-down using the μMACS GST Isolation Kit, according to the manufacturers' instruction (Miltenyi biotech). […] The eluate was dialyzed against 50 mM Tris HCl, pH 7.5, 50 mM NaCl, 1 mM DTT. Plant purified GFP:RGA proteins were split into different tubes and incubated with recombinant GST:GID1a (0.1 μg) or GST proteins in 1× reaction buffer (with freshly added protease inhibitor cocktail) in the presence or absence of 10 μM GA3. GST-bound proteins were pulled-down using the μMACS GST Isolation Kit, washed four times with 1× reaction buffer and eluted according to the manufacturers' instruction.

His:proAtSUMO1 [3] = target: T1, His:proAtSUMO1; experiment: far-western on spotted peptides SIM A and SIM B
Experimental: (§1) Peptides corresponding to the putative SIMs in GID1 were purchased from Cambridge Research Biochemicals. 1 μg of each peptide was spotted on a PVDF membrane. Membranes were washed in 100% Ethanol, equilibrated in TBST (25 mM Tris HCl, pH 8.0, 150 mM NaCl, 0.05% Tween 20) and blocked in TBST-Milk 5%. Peptides were probed overnight at 4° C. with recombinant His:proAtSUMO1 (10 μg/ml), washed and subsequently probed with SUMO1 antibodies for standard chemoluminescence-based detection.

His:proAtSUMO1 [4] = target: T1, His:proAtSUMO1; experiment: far-western on spotted peptides
Experimental: as §1

SUMOylated GFP:RGA = target: T3, SUMOylated GFP:RGA (Arabidopsis thaliana, UniProt Q9SLH3); experiment: On-column deSUMOylation assay of plant-derived GFP:RGA; assay type: biochemical; settings: 5-10 μg recombinant protease, typically 1-2 hours at room temperature
T3 construct: expressed in transfected cells; host or cells: pRGA::GFP:RGA transgenic Arabidopsis plants (Ler background)
Description: FIGS. 2A-G. SUMOylation is a novel DELLA modification affecting DELLA accumulation. a, Immunoprecipitation of GFP:RGA proteins. […] His:RGAK65R is not SUMOylated. […] In bold characters, the conserved lysine residues, shaded area, the non-canonical SUMOylation motif. Alignment discloses SEQ ID NOS 41, 76-77, 42, and 78-82, respectively, in order of appearance. e, SUMOylated GFP:RGA accumulation upon NaCl treatment. f, SUMOylated GFP:RGA accumulation in wild-type (OTS1 OTS2) or mutants (ots1 ots2) plants. g, accumulation of GFP:RGA at different concentrations of NaCl. Wild-type extracts (Col-0) were used as a negative control.
GFP:RGA proteins were affinity captured from total proteins extracts of pRGA::GFP:RGA transgenic plants with the μMACS GFP Isolation Kit. Magnetic beads were eluted from the columns with 50 μl of 20 mM Tris HCl, pH 7.5 and split into different tubes. Purified GFP:RGA proteins were incubated with 5-10 μg of recombinant OTS1 or OTS1C526S, or 300 ng of GST tagged human SENP1 or SENP (42) (catalytic domain) (Enzo life sciences). After incubation (typically 1-2 hours at room temperature), the beads were applied to the column, washed and bound proteins eluted with SDSPAGE loading buffer.

T1 sequence (P55852 whole entry): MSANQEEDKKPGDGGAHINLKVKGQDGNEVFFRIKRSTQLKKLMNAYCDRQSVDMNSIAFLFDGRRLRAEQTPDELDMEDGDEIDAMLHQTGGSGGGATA
T2 sequence (chain, as listed by the source limits assumed, chain 1 of 2): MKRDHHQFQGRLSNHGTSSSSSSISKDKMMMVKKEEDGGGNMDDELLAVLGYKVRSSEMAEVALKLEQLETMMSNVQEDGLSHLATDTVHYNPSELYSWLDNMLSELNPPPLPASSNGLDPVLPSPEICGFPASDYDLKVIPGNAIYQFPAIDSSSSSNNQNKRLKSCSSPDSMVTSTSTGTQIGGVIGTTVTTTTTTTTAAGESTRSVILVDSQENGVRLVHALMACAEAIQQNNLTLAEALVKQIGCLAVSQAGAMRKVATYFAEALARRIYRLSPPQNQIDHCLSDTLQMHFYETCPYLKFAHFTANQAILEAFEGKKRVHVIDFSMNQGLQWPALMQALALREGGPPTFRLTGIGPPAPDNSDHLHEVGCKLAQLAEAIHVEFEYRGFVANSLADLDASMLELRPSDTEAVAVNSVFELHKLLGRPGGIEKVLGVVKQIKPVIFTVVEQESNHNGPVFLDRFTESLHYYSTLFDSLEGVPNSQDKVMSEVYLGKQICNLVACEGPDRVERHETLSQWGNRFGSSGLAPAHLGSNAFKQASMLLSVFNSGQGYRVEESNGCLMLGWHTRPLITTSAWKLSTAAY
T2 sequence (P55852 1-93 limits assumed, chain 2 of 2): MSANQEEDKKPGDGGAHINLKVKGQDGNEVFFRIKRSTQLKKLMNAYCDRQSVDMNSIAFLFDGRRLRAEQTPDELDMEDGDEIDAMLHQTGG
T3 sequence (Q9SLH3 whole entry): as the sequence (chain, as listed by the source limits assumed, chain 1 of 2) above
T3 sequence (P55852 1-93 partner limits assumed): as the sequence (P55852 1-93 limits assumed, chain 2 of 2) above

Molecule: C=C1C[C@]23C[C@@]1(O)CC[C@H]2[C@@]12C=C[C@H](O)[C@@](C)(C(=O)O1)[C@H]2[C@@H]3C(=O)O [GA, gibberellic acid]
abundance of SUMOylated and non-SUMOylated RGA after GA treatment (GFP:RGA): induced a rapid disappearance of both SUMOylated and non-SUMOylated RGA forms

binding result (His:proAtSUMO1 [1]): binds
B1: SIM “B” peptide of AtGID1a (peptide array of FIG. 10) (peptide)
peptide: VVPLNTWVLISNF
notes: also called AtGID1a SIM

binding result [2]: binds
B2: GST:GID1a (receptor)
chain: MAASDEVNLIESRTVVPLNTWVLISNFKVAYNILRRPDGTFNRHLAEYLDRKVTANANPVDGVFSFDVLIDRRINLLSRVYRPAYADQEQPPSILDLEKPVDGDIVPVILFFHGGSFAHSSANSAIYDTLCRRLVGLCKCVVVSVNYRRAPENPYPCAYDDGWIALNWVNSRSWLKSKKDSKVHIFLAGDSSGGNIAHNVALRAGESGIDVLGNILLNPMFGGNERTESEKSLDGKYFVTVRDRDWYWKAFLPEGEDREHPACNPFSPRGKSLEGVSFPKSLVVVAGLDLIRDWQLAYAEGLKKAGQEVKLMHLEKATVGFYLLPNNNHFHNVMDEISAFVNAEC
notes: GID1a ORF (pLCG66) recombined into pDEST15; also called recombinant GST-tagged GID1a; GST-tagged GID1a; not shown: glutathione S-transferase (GST) tag of the GATEWAY destination vector pDEST15

binding result (His:proAtSUMO1 [3]): no binding
B3: SIM A peptide of GID1a (peptide)
peptide: LIESRTVVPLNTW
notes: Synthetic peptide (Cambridge Research Biochemicals), 1 ug spotted on PVDF

binding result (His:proAtSUMO1 [4]): binds
B4: SIM B peptide of GID1a (peptide)
peptide: VVPLNTWVLISN
notes: Synthetic peptide, 1 ug spotted on PVDF

B5: OTS1: purified recombinant OTS1 SUMO protease (protein)
chain: MTKRKKEVIDVDCSEKKDFVIDWSSAMDKEDEVPELEIVNTTKPTPPPPPTFFSDDQTDSPKLLTDRDLDEQLERKKAILTLGPGLPDKGEKIRLKIADLEEEKQRRVLEGSKMEVDRSSKVVSSTSSGSDVLPQGNAVSKDTSRGNADSKDTSRQGNADSKEVSRSTFSAVFSKPKTDSQSKKAFGKELEDLGCERRKHKAGRKPVTRLSNGWRLLPDVGKAEHSAKQFDSGLKESKGNKKSKEPYGKKRPMESSTYSLIDDDDDDDDDDDNDTSGHETPREWSWEKSPSQSSRRRKKSEDTVINVDEEEAQPSTVAEQAAELPEGLQEDICYPTRDDPHFVQVCLKDLECLAPREYLTSPVMNFYMRFLQQQISSSNQISADCHFFNTYFYKKLSDAVTYKGNDKDAFFVRFRRWWKGIDLFRKAYIFIPIHEDLHWSLVIVCIPDKKDESGLTILHLDSLGLHSRKSIVENVKRFLKDEWNYLNQDDYSLDLPISEKVWKNLPRRISEAVVQVPQQKNDFDCGPFVLFFIKRFIEEAPQRLKRKDLGMFDKKWFRPDEASALRIKIRNTLIELFRVSDQTE
modifications: left off: small tags and cut ends
notes: purified recombinant OTS1 SUMO protease
deSUMOylation of SUMOylated GFP:RGA (SUMOylated GFP:RGA): dramatic reduction of the higher molecular weight, anti-SUMO1 cross-reacting bands

From US20150353950A1, “TRANSGENIC PLANTS” (Durham University, priority 2012, published 2015)
